Assay results reported in patent US20140079722A1, “EXTRACELLULAR TARGETED DRUG CONJUGATES” (CENTROSE, LLC, priority 2011, published 2014).
Ends that are not written are not given here.

Experiments:
A549 NSCLC cells = experiment: In vitro normal cell cytotoxicity study, carcinoma comparator line; assay type: cell-based; conditions: Homo sapiens, A549, 72 h
Description: In vitro normal cell cytotoxicity. The in vitro cytotoxic activity of M53-PEG24-CEN09-106, PEG24-CEN09-106, M53-PEG24-CEN-319, PEG24-CEN-319, proscillaridin and digitoxin against dysadherin positive primary normal human cells and a dysadherin positive human non-small cell lung carcinoma (NSCLC) cell line were tested and compared. The cells used were primary human renal epithelial cells (HREpC), primary human umbilical vein endothelial cells (HUVEC), primary human umbilical artery endothelial cells (HUAEC), and the A549 NSCLC cells. The primary cells were obtained from PromoCell GmbH, Heidelberg, Germany, and the NSCLC cell line A549 was obtained from ATCC. Primary renal epithelial cells were grown in Renal Epithelial Cell Growth Medium 2 (PromoCell GmbH, Heidelberg, Germany). Primary endothelial cells were grown in Endothelial Cell Growth Medium 2 (PromoCell GmbH, Heidelberg, Germany). […] After 72 hrs of exposure to agent, cell viability was evaluated using the Cell Titer-Glo Luminescent Cell Viability Assay (Promega, Madison, Wis.) according to the manufacturer's instructions. Luminescence measurements were performed using a Wallac Victor^2 Model 1420-041 assay plate reader (Perkin Elmer, Gaithersburg, Md.). EC50 values for each test agent were determined using GraphPad Prism 5 software.

[1] = system: primary human renal epithelial cells (HREpC); experiment: In vitro normal cell cytotoxicity; assay type: cell-based; conditions: 72 h
Description: (§1) In vitro normal cell cytotoxicity. The in vitro cytotoxic activity of M53-PEG24-CEN09-106, PEG24-CEN09-106, M53-PEG24-CEN-319, PEG24-CEN-319, proscillaridin and digitoxin against dysadherin positive primary normal human cells and a dysadherin positive human non-small cell lung carcinoma (NSCLC) cell line were tested and compared. The cells used were primary human renal epithelial cells (HREpC), primary human umbilical vein endothelial cells (HUVEC), primary human umbilical artery endothelial cells (HUAEC), and the A549 NSCLC cells. The primary cells were obtained from PromoCell GmbH, Heidelberg, Germany, and the NSCLC cell line A549 was obtained from ATCC. Primary renal epithelial cells were grown in Renal Epithelial Cell Growth Medium 2 (PromoCell GmbH, Heidelberg, Germany). Primary endothelial cells were grown in Endothelial Cell Growth Medium 2 (PromoCell GmbH, Heidelberg, Germany). The NSCLC cell line was grown in RPMI-1640 (HyClone, Thermo Scientific) supplemented with 10% fetal bovine serum. HREpC, HUVEC, HUAEC, and A549 cells were plated in 384 well plates at 1250, 1875, 2500, and 1250 cells/well (respectively) and allowed to incubate for 24 hrs at 37° C., 5% CO2, and 100% humidity. Various concentrations of conjugates M53-PEG24-CEN09-106 and […] and PEG24-CEN09-106 and […] were added to the wells in a total volume of 5 uL of media and the plates were incubated for an additional 72 hrs. After 72 hrs of exposure to agent, cell viability was evaluated using the Cell Titer-Glo Luminescent Cell Viability Assay (Promega, Madison, Wis.) according to the manufacturer's instructions. Luminescence measurements were performed using a Wallac Victor^2 Model 1420-041 assay plate reader (Perkin Elmer, Gaithersburg, Md.). EC50 values for each test agent were determined using GraphPad Prism 5 software.

[2] = system: primary human umbilical vein endothelial cells (HUVEC); experiment: In vitro normal cell cytotoxicity; assay type: cell-based; conditions: Homo sapiens, 72 h
Description: as §1

[3] = system: primary human umbilical artery endothelial cells (HUAEC); experiment: In vitro normal cell cytotoxicity; assay type: cell-based; conditions: Homo sapiens, Endothelial cell, 72 h
Description: as §1

human dysadherin [4] = biological target: T1, human dysadherin (human, UniProt Q96DB9 22-178); experiment: cell-based or functional assay
T1 chain: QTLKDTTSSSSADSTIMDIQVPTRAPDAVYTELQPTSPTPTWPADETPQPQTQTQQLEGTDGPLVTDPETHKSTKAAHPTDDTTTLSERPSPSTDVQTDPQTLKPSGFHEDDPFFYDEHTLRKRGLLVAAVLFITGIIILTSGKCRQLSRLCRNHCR

human dysadherin [5] = biological target: T1, human dysadherin; experiment: cell-based or functional assay
human dysadherin [6] = biological target: T1, human dysadherin; experiment: cell-based or functional assay
PANC1 = experiment: In vitro cancer cell cytotoxicity (CellTiter-Glo cell viability); assay type: cell-based, human; conditions: PANC cells, 3 days incubation
Excerpt: (§2) EDCs were constructed using linker-ready agents PEG24-CEN09-106, PEG24-CEN09-107, PEG24-CEN10-110 and PEG24-CEN-319. As described in Example 1, linker-ready agent PEG24-CEN-319 contain digitoxigenin while the others contain scillarenin. Linker-ready agents PEG24-CEN09-106, PEG24-CEN09-107, PEG24-CEN10-110 all use different linkers. Specifically, PEG24-CEN09-106 and PEG24-CEN09-107 have different sugars in the linker, while PEG24-CEN10-110 contains a longer linker that includes a primary amine.
(§3) All of the cell lines below, except H520, express the Na,K-ATPase with the dysadherin subunit and so present the target of the antibody and drug in close proximity.

A549 = experiment: as above; assay type: cell-based, human; conditions: A549 cells, 3 days incubation
Excerpt: as §2, §3

A375 = experiment: as above; assay type: cell-based, human; conditions: A375 cells, 3 days incubation
Excerpt: as §2, §3

[7] = system: human cell lines H460, A549, A375, PANC1, and H929; experiment: In vitro cancer cell cytotoxicity, statements over the cell line panel; assay type: cell-based; conditions: at the highest concentrations tested
Excerpt: as §2, §3

[8] = Pharmacokinetics and serum stability, antibody and drug specific ELISA; assay type: in vivo, Balb/c mice; conditions: Balb/c mice, EDC drug loading of 3
Description: The steroid drug pharmacokinetics of M53-PEG24-CEN09-106 were measured using the drug specific ELISA described below. The comparison between the two ELISA results (antibody concentrations minus drug concentrations) was used to determine the rate of drug breakdown and thus examine M53-PEG24-CEN09-106 stability.
Serum was isolated from blood samples acquired by retro-orbital blood collection at 1, 2, 4, 8, 16, 26, and 40 days post-injection. […] Plasma concentrations of the steroid drug in M53-PEG24-CEN09-106 were measured as follows. Antigen coated ELISA plates were washed (×3) with PBS pH 7, blocked 30 min with PBS pH 7 containing 1% NFDM (PBS+NFDM), and then washed (×3) with PBS, pH 7. Diluted serum samples and standard curves of M53-PEG24-CEN09-106 were prepared in the above blocking buffer and applied to coated wells, incubated 30 min at RT, and the wells were washed (×3) with PBS, pH 7. Biotinylated 25C2E3 (a monoclonal IgG1 antibody specific for the steroid portion of PEG24-CEN09-106 and conjugated to biotin [Thermo Scientific, PN 21911]) was diluted to 100 ng/mL in PBS+NFDM and added (100 uL) to each well, incubated 30 min at RT, and the wells washed (×3) with PBS, pH 7. PNPP at 1 mg/mL in 1M DEA with 50 mM MgCl2, pH 9.8 was added (100 uL per well), and the absorbance at 405 nm was determined using a Wallac Victor^2 Model 1420-041 assay plate reader (Perkin Elmer, Gaithersburg, Md.) every 5 minutes for a total of 6 reads.
For both ELISAs, absorbance values from known standards were plotted as absorbance over time, generating a linear slope for each concentration. The slopes generated were then plotted against the respective concentrations of the standards, creating a second linear plot. The absorbance values for the unknown serum samples were plotted over time, establishing a slope for unknown sample. The linear estimate from the slope versus concentration plot was then used to extrapolate concentrations for each unknown sample based on their slope.
To determine serum stability of the intact EDC (drug release from the antibody over time) in these samples, the ratio of the slopes of serum decay of the drug portion to the serum decay of the antibody portion were calculated.

[9] = Pharmacokinetics with varying drug loading (antigen binding ELISA); assay type: in vivo; conditions: unconjugated antibody, 1 mg/kg tail vein, SCID beige mice
Description: Serum was isolated from blood samples taken by retro-orbital blood collection at 1 hour, and 1, 2, 3, 6, and 15 days post-injection. Blood was collected into heparin coated tubes followed by centrifugation (5,000×g, 5 minutes) to isolate plasma.
Antigen capture plates that were prepared by coating wells of 96 well clear bottom ELISA plates with CENP018 (SEQ ID NO: 17) conjugated to BSA at 400 ng BSA-peptide conjugate per well in 100 uL of 200 mM carbonate buffer, pH 9.6 overnight at 4° C. Antigen coated ELISA plates were washed (×3) with PBS pH 7, blocked 30 min with PBS pH 7 containing 1% NFDM (PBS+NFDM), and then washed (×3) with PBS, pH 7. […] Goat anti-mouse IgG alkaline phosphatase (cat. number: A1418, Sigma-Aldrich, St. Louis, Mo.) was diluted 1:15,000 in PBS+NFDM and added (100 uL) to each well, incubated 30 min at RT, and the wells washed (×3) with PBS, pH 7. PNPP at 1 mg/mL in 1M DEA with 50 mM MgCl2, pH 9.8 was added (100 uL per well), and the absorbance at 405 nm was determined using a Wallac Victor^2 Model 1420-041 assay plate reader (Perkin Elmer, Gaithersburg, Md.) every 5 minutes for a total of 6 reads. Absorbance values from known antibody concentration standards were used to determine the concentration of antibody in the serum samples.

peptide CENP018 = biological target: T2, peptide CENP018 (human, not fully specified); experiment: immunoaffinity chromatography on CENP018 coupled to SulfoLink resin
T2 construct: also called 17
T2 peptide: PTRAPDAVYTELQC

`C[C@H]1O[C@@H](O[C@H]2[C@@H](O)C[C@H](O[C@H]3[C@@H](O)C[C@H](O[C@H]4CC[C@@]5(C)[C@H](CC[C@@H]6[C@@H]5CC[C@]5(C)[C@@H](C7=CC(=O)OC7)CC[C@]65O)C4)O[C@@H]3C)O[C@@H]2C)C[C@H](O)[C@@H]1O` [Digitoxin] gave an EC50 (A549 NSCLC cells) of 17 nM, an EC50 [1] of 135 nM and an EC50 [2] of 39 nM. For the same molecule, the EC50 [3] was 47 nM.

`C[C@@H]1O[C@@H](O[C@@H]2C=C3CC[C@@H]4[C@H](CC[C@]5(C)[C@@H](c6ccc(=O)oc6)CC[C@]45O)[C@@]3(C)CC2)[C@H](O)[C@H](O)[C@H]1O` [Proscillaridin] showed an EC50 (A549 NSCLC cells) of 2.1 nM, an EC50 [1] of 10 nM and an EC50 [2] of 5.6 nM. It also gave an EC50 [3] of 5.6 nM.

B1: M53-PEG24-CEN09-106 (antibody, V domains shown)
VH: EVQLVESGGGLVQPKGTLKLSCAASGFSFNTHAMNWVRQAPGKSLEWVARTMSKSNNYATYYADSVKDRFIIRADDSQSMLYLQMNNLKTEDTAMYYCVRDDPKRGMDYWGQGTSVTVSS
VL: GIVMSQSPSSLAVSVGEKVTMSCKPSQSLLYSRNQKIYLAWYQQKPGQSPKLLIYWASTRESGVPDRFTGSGSGTDFTLIISSVRAEDLAVYYCQQYYNYPLTFGAGTKLELKR
modifications: PEG24-CEN09-106 on reduced cysteine thiols; positions not given; PEG24-CEN09-106 (scillarenin 4-amino-xyloside PEG24 maleimide linker-drug) on reduced cysteine thiols; positions not given
In the case of B1, the “EC50, cytotoxicity (CellTiter-Glo cell viability), A375 cells” value (human dysadherin [4]) is reported as 0.4 nM, the “EC50, cytotoxicity (CellTiter-Glo cell viability), A549 cells” value (human dysadherin [4]) is reported as 0.2 nM and the “EC50, cytotoxicity (CellTiter-Glo cell viability), H460 cells” value (human dysadherin [4]) is reported as 0.3 nM. For the same molecule, the “EC50, cytotoxicity (CellTiter-Glo cell viability), H929 cells” value (human dysadherin [4]) was 0.1 nM, the “EC50, cytotoxicity (CellTiter-Glo cell viability), PANC cells” value (human dysadherin [4]) was 0.3 nM and the “EC50, in vitro activity against A549 cells” value (human dysadherin [5]) was 1.9 nM. For the same molecule, the “EC50, cytotoxicity, A549 cells (drug alone, combination study)” value (human dysadherin [6]) was 0.3 nM.

B2: M53 (antibody)
heavy: EVQLVESGGGLVQPKGTLKLSCAASGFSFNTHAMNWVRQAPGKSLEWVARTMSKSNNYATYYADSVKDRFIIRADDSQSMLYLQMNNLKTEDTAMYYCVRDDPKRGMDYWGQGTSVTVSSAKTTPPSVYPLAPGSAAQTNSMVTLGCLVKGYFPEPVTVTWNSGSLSSGVHTFPAVLQSDLYTLSSSVTVPSSTWPSETVTCNVAHPASSTKVDKKIE
light: GIVMSQSPSSLAVSVGEKVTMSCKPSQSLLYSRNQKIYLAWYQQKPGQSPKLLIYWASTRESGVPDRFTGSGSGTDFTLIISSVRAEDLAVYYCQQYYNYPLTFGAGTKLELKRADAAPTVSIFPPSSEQLTSGGASVVCFLNNFYPKDINVKWKIDGSERQNGVLNSWTDQDSKDSTYSMSSTLTLTKDEYERHNSYTCEATHKTSTSPIVKSFNR
B2 showed an EC50 (PANC1) greater than 5000 nM, an EC50 (A549) greater than 5000 nM and an EC50 (A375) greater than 2000 nM. For the same molecule, the “cytotoxicity of antibody alone” value [7] was “inactive”, the “serum half-life of the antibody portion” value ([8]; 1 mg/kg tail vein) was 11.9 days and the “serum half-life of the antibody portion” value ([8]; 10 mg/kg tail vein) was 10.3 days. For the same molecule, the “serum half-life of detectable (by antigen binding) antibody” value [9] was “approximately 6 days”.

B3: anti-FXYD5 scFv003 (scFv)
scFv: ECQLVESGGGLVQPKGTLKLSCAASGFSFNTHAMNWVRQAPGKSLEWVARTMSKSNNYATYYADSVKDRFIISRDDSQSMLYLQMNNLKTEDTAMYYCVRDDPKRGMDYWGQGTSVTVSSGGGGSGGGGSGGGGSGIVMSQSPSSLAVSVGEKVTMSCKPSQSLLYSRNQKIYLAWYQQKPGQSPKLLIYWASTRESGVPDRFTGSGSGTDFTLIISSVRAEDLAVYYCQQYYNYPLTFGAGTKLELK
notes: Unconjugated scFv, purified from E. coli lysate on CENP018 resin; also called CENscFv003
B3: binds (peptide CENP018).
